Data from the nanobody polyreactivity screen of Harvey et al. (2022).

Test: yeast display, Sf9 membrane polyspecificity reagent, FACS + sequencing; frameworks hold sequencing errors
Outline: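 Genes from sorted yeast were amplified by colony PCR, read by MiSeq 2 × 250 sequencing and filtered on CDR length. These cells carried a synthetic nanobody library in Saccharomyces cerevisiae BJ5465 and were sorted by FACS into low and high (top ~1%) gates on anti-HA and streptavidin fluorescence. Polyreactivity is labelled according to the gate of origin.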

Sequence	polyreactivity (PSR sort gate)
QVQLVESGGGLVQAGGSLRLSCAASGSIFLSYTMGRYRQAPGKERELVAAITSGGSTKYADSVKGRFTISRDNAKNTVYLQMNSLKPEDTAVYYCNATPYSRLGYWGQGTQVTVSS	high polyreactivity
QVQLVESGGGLVQAGGSLRLSCAASGSIFLTYTMGWYRQATGKERELVAAITDSDGSTSYADSVKGRFTISRDNAKNTVYLQMNSLKPEDTAVYYCAVEGYWYAGWYAMDYWGQGTQVTVSS	low polyreactivity
QVQLVESGGGLVQAGGSLRLSCAASGSIFLVNAMGWYRQAPGERKELVAAISWSSGSTYYADSVKGRFTISRDNAKNTVYLQMNSLKPEDTAVYYCAKRSSITYRYDYWGQGTQVTVSS	high polyreactivity
QVQLVESGGGLVQAGGSLRLSCAASGSIFLVYAMGWYRQAPGKERELVAAIRISDSTNYADSVKGRFTISRDNAKNTVYLQMNSLKPEDTAVYYCNVDTVGLGGEKGGYYWGQGTQVTVSS	low polyreactivity
QVQLVESGGGLVQAGGSLRLSCAASGSIFLWNAMGWYRQAPGKEREFVASITSRGGSTYYADSVKGRFTISRDNAKNTVYLQMNSLKPEDTAVYYCAAVRSKYLYYQGGYSSYGYWGQGTQVTVSS	high polyreactivity
QVQLVESGGGLVQAGGSLRLSCAASGSIFLYNAMGWYRQAPGKERELVAAISAIGSNTYYADSVKGRFTISRDNAKNTVYLQMNSLKPEDTAVYYCAAESVNVVNFGTRVGYWGQGTQVTVSS	high polyreactivity
QVQLVESGGGLVQAGGSLRLSCAASGSIFLYNAMGWYRQAPGKERELVAAISSSSDRTYYADSVKGRFTISRDNAKNTVYLQMNSLKPEDTAVYYCNVVYIGWRKYEYWGQGTQVTVSS	high polyreactivity
QVQLVESGGGLVQAGGSLRLSCAASGSIFLYNAMGWYRQAPGKESEFDAAISWSGVSTYYADSVKGRFTISRDNAKNTVYLHMNSLKPEDTAVYYCNAVYARVPIYDYWGQGTQVTVSS	low polyreactivity
QVQLVESGGGLVQAGGSLRLSCAASGSIFLYNAMRWYRQAPGKERELVAAKSYSGASTYYADSVKGRFTISRDNAKNTVYLQMNSLKAEDTAVYYCAKTFRYKWPYGTPKYDYWGQGTQVTVSS	high polyreactivity
QVQLVESGGGLVQAGGSLRLSCAASGSIFLYYAMGWYIQAPGKERELVAGIRRGGRTNYADSVKGRFTISRDNAKNTVYLQMNSLKPEDTAVYYCAKGGYWGHGTQVTVSS	high polyreactivity
QVQLVESGGGLVQAGGSLRLSCAASGSIFLYYAMGWYTQAPGKERELVASISSTGSTYYADSVKGRFTISRDNAKNTVYLLINSLKPEDTGVYYCAKRRWYYYPRYSLSTQMDYWGQGTQVTVSS	high polyreactivity
QVQLVESGGGLVQAGGSLRLSCAASGSIFMRYSMGWYRQAPGKDRELVAAITRSGGSTYYADSVKGRFTISRDNAKNTVYLQMNSLKPEDTAVYFCAAYTFVTVGYDYWGQGTQVTVSS	high polyreactivity
QVQLVESGGGLVQAGGSLRLSCAASGSIFNGNAMGWYRQAPGKERELVAAITRRGGRTYYADSVKGRFTISRDNAKNTVYLQMNSLKPEDTAVYYCNAYSKAVQGGYYYWGQGTQVTVSS	high polyreactivity
QVQLVESGGGLVQAGGSLRLSCAASGSIFNGYAMGWYRQAPGKERELVAAISWSGVGTYYADSVKGRFTISRDNAKNTVYLEMNSLKPEDTAVYYCNAVATHDWLRVDTYEYWGQGTQVTVSS	low polyreactivity
QVQLVESGGGLVQAGGSLRLSCAASGSIFNGYAMGWYRQAPGKERELVATITRGGGSTYYADSVKGRFTISRDNAKNTVYLQMNSLKPEDTAVYYCAKTYFYGVRRFNYWGQGTQVTVSS	high polyreactivity
QVQLVESGGGLVQAGGSLRLSCAASGSIFNINAMGWCRQAPGKDRELVATITSGGTTSYADSVKGRFTISRDNAKNTVYLQMNSLKPEDTAVYYCNAEIYPIVKAGRQHPRRYDYWGQGTQVTVSS	low polyreactivity
QVQLVESGGGLVQAGGSLRLSCAASGSIFNIYAMGWYRQAPGKERELVATITGIADSTYYADSVKGRFTISRDNAKNTVYLQMNSLKPEDTAVYFCAAEKYVAEYEYWGQGTQVTVSS	low polyreactivity
QVQLVESGGGLVQAGGSLRLSCAASGSIFNIYAMGWYRQAPGKERELVATITGIADSTYYADSVKGRFTISRDNAKNTVYLQMNSLKPEDTAVYYCAAIYGSRYTTGQTRRDYYSWGQGTQVTVSS	low polyreactivity
QVQLVESGGGLVQAGGSLRLSCAASGSIFNLYAMGWYRQAPGKERELVAAISRSGGSTYYADSVKGRFTISRDNAKNTVYLQMNSLKPEDTAVYYCAARYNWRYDIFDYWGQGTQVTVSS	high polyreactivity
QVQLVESGGGLVQAGGSLRLSCAASGSIFNLYGMGWYRQAPGKERELVAGSTSSGGSTHYADSVKGRFTISRDNAKNTVYLQMNSLKPEDTAVYYCAKVWSFPSNYRAYYYWGQGTQVTVSS	high polyreactivity
QVQLVESGGGLVQAGGSLRLSCAASGSIFNNYAMGWYRQAPGKEREFVAAISRSGGSTYYADSVKGRFTISRDNAKNTVYLQMNSLKPEDTAVYYCATDHGRYHGRYDYWGQGTQVTVSS	high polyreactivity
QVQLVESGGGLVQAGGSLRLSCAASGSIFNPNAMGWYRQAPGKEREVVAAIDSGGTTDYADSVKGRFTISRDNAKNTVYLQINSLKPEDTAVYYCNADRTVTSSSFTDYDYWGQGTQVTVSS	high polyreactivity

Sequence	polyreactivity (PSR sort gate)
QVQLVESGGGLVQAGGSLRLSCAASGSIFNPYAMGWSRQAPGKEWELVAAISYDTTSTYYADSVKGRFTISRDNAKNTDYLQMNSLKPEDTAVYYCAARDQYGPGYRSESLDSWGQGTQETVSS	low polyreactivity
QVQLVESGGGLVQAGGSLRLSCAASGSIFNPYAMGWYRQAPGKERELVAAISYTGGRTYYADSVKGRFTISRDNAKNTVYLQMNSLKPEDTAVYYCAAGHYVYWYRYQLGRYNYWGQGTQVTVSS	high polyreactivity
QVQLVESGGGLVQAGGSLRLSCAASGSIFNQYAMGWHRQAPGKERELVAAISSSGGSTYYADSVKGRFTISRDNAKNTVYLQMNSLKPEDTAVYYCAARPSGRGYYLLGYWGQGTQVTVSS	low polyreactivity
QVQLVESGGGLVQAGGSLRLSCAASGSIFNRNAMGWYRQAPGKERELVASINYSGGSTYYADSVKGRFTISRDNAKNTVYLQMNSLKPEDTAVYYCAADGKTYYRGGGPYYIYYRYDYWGQGTQVTVSS	low polyreactivity
QVQLVESGGGLVQAGGSLRLSCAASGSIFNRYAIGWYRQAPGKERELFAAISSTGSTYYADSVKGRFTISRDNAKKTVYLQMNRLKPEDTAVYYCNADVLALAPYDYWGQGTQVNVSS	low polyreactivity
QVQLVESGGGLVQAGGSLRLSCAASGSIFNRYAMGWYRQAPGKERELVAAIRSDGSTYYADSVKGRFTISRDNAKNTVYLQMNSLKPEDSAVYYCAAPLHRRYYEMDYWGQGSQVTVSS	low polyreactivity
QVQLVESGGGLVQAGGSLRLSCAASGSIFNRYAMGWYRQAPGKERELVAAIRSGDNTNYADSVKGRFTISRDNAKNTVYLQMNSLKPEDTAVYYCAIRTYYRSRTVGWGKMDYWGQGTQVTVSS	high polyreactivity
QVQLVESGGGLVQAGGSLRLSCAASGSIFNRYTMGWYRQAPGKERELVAAISKRGGSTYYADSVKGRFTISRDNAKNTVYLQMNSLKPEDPAVYYCAAAGYHSGKGGGYWGQGTQVTVSS	high polyreactivity
QVQLVESGGGLVQAGGSLRLSCAASGSIFNSNAMGWYRQAPGKERELVATIRWSGGSTNYADSVKGRFTISRDNAKNTVYLQMNSLKPEDTAVYYCAVLPRGSNGMDYWGQGTQVTVSS	low polyreactivity
QVQLVESGGGLVQAGGSLRLSCAASGSIFNSYDMGWYRQAPGKERELVAAIRSRVGSTYYADSVKGRFTISRDNAKNSVYLQMNSLKQEDTAVYYCIKDNAVDRLPWFQVTYDYWGQGTQVTVSS	low polyreactivity
QVQLVESGGGLVQAGGSLRLSCAASGSIFNTYAMGWYRQAPGKEREFVASITYRGSNTYYADSVKGRFTISRDNAKNTVYLQMNSLKPEDTAVYDCAADSFDYRPEYDYWGQGTQVTVSS	low polyreactivity
QVQLVESGGGLVQAGGSLRLSCAASGSIFNVNSMGWYRQAPGKERELVAAISSGGDTYYADSVKGRFTISRDNAKNTVYLQMNSLKPEDTAVYYCAKQSYTLYTLLYDYWGLGTQVTVSS	low polyreactivity
QVQLVESGGGLVQAGGSLRLSCAASGSIFNWNAKAWYRQAPVKERELVAAITGSGTSTYYADSVKGRFTISPDYAKNTVYLQMNSLKPQDTAVYYCAVTRRSRYGYWGQGTQVTVSS	high polyreactivity
QVQLVESGGGLVQAGGSLRLSCAASGSIFNWYAMGWYRQARGKERELVAAISYSGTRTYYADSVKGRFTISRDNAKNTVNLQLNSLKPEDTAVYYCNRAYYTRWYTKFDYWGQGTQVTVSS	high polyreactivity
QVQLVESGGGLVQAGGSLRLSCAASGSIFNYNAMGWYRQAPGKERELVAAISWSGGSTYYADSVKGRFTISRDNAKNTVYLQMNSLKPEDTAVYYCAVATGLLYKSHGYWGQGTQVTVSS	low polyreactivity
QVQLVESGGGLVQAGGSLRLSCAASGSIFNYYAMGWYRQAPGKERELVAAISSGDTTYYADSVKGRFTISRDNAKNTVYLQMNSLKPQDTAVYYCAAKPRSQVRYGYWGQGTQVTVSS	low polyreactivity
QVQLVESGGGLVQAGGSLRLSCAASGSIFNYYAMGWYRQAPGKERELVAAITSSDGRTFYADSVKGRFTISRDNAKNKVYLQMNSLKPEDTAFYYCAAEWTSRYSTYEYWGQGTQVTVSS	low polyreactivity
QVQLVESGGGLVQAGGSLRLSCAASGSIFNYYAMGWYRQAPGKERELVAGITTSGGSTYYADSVKGRFTISRDNAKNTVYLQMNSLKPEDTAVYYCAAYDYISSTYFLDDYWGQGTQVTVSS	low polyreactivity
QVQLVESGGGLVQAGGSLRLSCAASGSIFNYYAMGWYRQAPGKERELVATITTRDGTTYYADSVKGRFTISRDNAKNTVYLQMNSLKPEDTAVYYCAKSWWPSRRTYSFYYWGQGTQVTVSS	high polyreactivity
QVQLVESGGGLVQAGGSLRLSCAASGSIFNYYAMGWYRQAPGQERELVASISRGGSTNYADSVKGRFTISRDNAKNTVYLQMNSLKPEDTAVYYCNAEGWPGNVVYGYYYWGQGTQVTVSS	low polyreactivity
QVQLVESGGGLVQAGGSLRLSCAASGSIFNYYGMGWYRQAPGKERELVAAISYSGGSTYYADSVKGRFTISRDNAKNTVYLQMNSLKPEDTAVYYCAKRYYPVIRYHSTYDSWGQGTQVTVSS	low polyreactivity
